In data set [1] the target is disulfide-stabilized HIV-1 CA tubes (HIV-1). Description: co-sedimentation; purified TRIM5-21R (5 μM) incubated with disulfide-stabilized HIV-1 CA tubes, fractionated by centrifugation, load, soluble and pellet fractions on SDS-PAGE with Coomassie staining, densitometry; done right after purification.
The target of data set [2] is TRIM5-21R F187A (human | rhesus). Put plainly: anion exchange chromatography + SEC; relative fractions of monomer and dimer of TRIM5-21R proteins during purification; linear salt gradient; dimer to monomers.
Data set [3] concerns the target TRIM5-21R L190A (human | rhesus). The data set is described as above.
Data set [4] deals with the molecule itself. Put plainly: SEC-MALS; purified CC-L2 proteins, 50 μL injected at 0.5–1 mg/mL; dimer to monomers. A general note: Size exclusion chromatography separates by hydrodynamic size, large species first.

The source of these data is publication PMC5667893, “TRIM5α SPRY/coiled-coil interactions optimize avid retroviral capsid recognition” (PLoS Pathogens, 2017).

What is called stoichiometry N is a count of units in the complex or per binding partner.

Residue numbers refer to the chain shown, from its start. Names and notes keep the numbering of the source.

“TRIM5-21R (rhesus TRIM5α with its RING domain replaced by that of human TRIM21), wildtype”: the percent co-pelleted with the CA tubes in data set [1] worked out at 50%. In turn, TRIM5-21R D186A came in with a percent in the pellet with the CA tubes in data set [1] of 36%.

As to TRIM5-21R E197A, in data set [1], the percent in the pellet with the CA tubes amounted to 61%.

TRIM5-21R F187A: the monomer fraction of the total protein in data set [2] was > 50%. Consider TRIM5-21R L190A, for which the percent in the pellet with the CA tubes in data set [1] amounted to 34%. The monomer fraction of the total protein in data set [3] is > 50%. For TRIM5-21R L194A, the percent in the pellet with the CA tubes in data set [1] was 29%.

B1: CC-L2 fragment of rhesus TRIM5α (residues 133–300) E197A (domain or fragment, UniProt Q0PF16 133-300, looked up)
chain: MEEVAQEYHVKLQTALEMLRQKQQEAEKLEADIREEKASWKIQIDYDKTNVSADFEQLREILDWAESNELQNLEKEEEDILKSLTKSETEMVQQTQYMRELISELEHRLQGSMMDLLQGVDGIIKRIENMTLKKPKTFHKNQRRVFRAPDLKGMLDMFRELTDARRYW
notes: TRIM5α, rhesus, coiled-coil and L2 linker, residues 133-300; dimeric with a trailing shoulder of monomer by SEC-MALS; also called CC-L2 E197A; source: E. coli BL21(DE3), autoinduction, purified (Ni-NTA, anion exchange, size exclusion); not shown: His, N-terminal, cleaved; SUMO, N-terminal, cleaved
As to B1, the “stoichiometry N” value in data set [4] is 2.

B2: CC-L2 fragment of rhesus TRIM5α (residues 133–300), wildtype (domain or fragment, UniProt Q0PF16 133-300, looked up)
chain: B1 chain with A65E
notes: TRIM5α, rhesus, coiled-coil and L2 linker, residues 133-300; His-SUMO leader cleaved with Ulp1 protease; also called TRIM5α_(133–300); wildtype control; source: E. coli BL21(DE3), autoinduction, purified (Ni-NTA, anion exchange, size exclusion); not shown: His, N-terminal, cleaved; SUMO, N-terminal, cleaved
Regarding B2, the “stoichiometry N” value in data set [4] came out at 2.

B3: CC-L2 fragment of rhesus TRIM5α (residues 133–300) I193A (domain or fragment, UniProt Q0PF16 133-300, looked up)
chain: B1 chain with I61A, A65E
notes: TRIM5α, rhesus, coiled-coil and L2 linker, residues 133-300; also called CC-L2 I193A; source: E. coli BL21(DE3), autoinduction, purified (Ni-NTA, anion exchange, size exclusion); not shown: His, N-terminal, cleaved; SUMO, N-terminal, cleaved
Take B3: the “stoichiometry N” value in data set [4] was found to be 2.

B4: CC-L2 fragment of rhesus TRIM5α (residues 133–300) E201A (domain or fragment, UniProt Q0PF16 133-300, looked up)
chain: B1 chain with A65E, E69A
notes: TRIM5α, rhesus, coiled-coil and L2 linker, residues 133-300; also called CC-L2 E201A; source: E. coli BL21(DE3), autoinduction, purified (Ni-NTA, anion exchange, size exclusion); not shown: His, N-terminal, cleaved; SUMO, N-terminal, cleaved
As for B4, the “stoichiometry N” value in data set [4] came out at 2.

B5: CC-L2 fragment of rhesus TRIM5α (residues 133–300) D186A (domain or fragment, UniProt Q0PF16 133-300, looked up)
chain: B1 chain with D54A, A65E
notes: TRIM5α, rhesus, coiled-coil and L2 linker, residues 133-300; also called CC-L2 D186A; source: E. coli BL21(DE3), autoinduction, purified (Ni-NTA, anion exchange, size exclusion); not shown: His, N-terminal, cleaved; SUMO, N-terminal, cleaved
Regarding B5, the “stoichiometry N” value in data set [4] worked out at 2.
